# From US12227570B2, “Anti-CEACAM6 antibodies and methods of use” (Singapore Health Services PTE LTD, priority 2016, dated 2025)
# T1: CEACAM6 (Homo sapiens, UniProt P40199)
# T1 construct: 20 μg of PC-9 membrane protein extract was first denatured; endogenous in cells; host or cells: PC-9 cells
# T1 sequence (P40199 35-320): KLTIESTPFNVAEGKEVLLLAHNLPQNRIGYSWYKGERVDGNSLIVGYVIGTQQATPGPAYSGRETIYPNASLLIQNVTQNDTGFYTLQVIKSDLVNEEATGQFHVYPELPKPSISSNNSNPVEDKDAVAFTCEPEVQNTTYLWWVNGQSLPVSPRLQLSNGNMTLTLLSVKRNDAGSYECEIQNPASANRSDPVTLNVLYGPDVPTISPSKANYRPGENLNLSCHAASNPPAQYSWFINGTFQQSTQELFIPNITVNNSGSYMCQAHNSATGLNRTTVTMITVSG
# Columns and labels:
# [1] = test system: PC-9 cells; experiment: Antibody internalisation by immunofluorescence; format: cell-based; conditions: 37° C.; a proportion of cells not internalised at 120 min
# [2] = test system: NSCLC lines, GR HCC827 clones, breast cancer lines, colorectal cancer lines; experiment: Flow cytometry binding on other cancer cell lines; format: cell-based
# Method: (§1) Cells were harvested as single cell suspensions using trypsin. 1E5 cells were used per sample, and incubated with 100 μl of mAb culture supernatant for 30 min. Cells were then washed with 1% bovine serum albumin in PBS, and further incubated with 100 μl of goat anti-mouse antibody fluorescein isothiocyanate (FITC)-conjugated (1:500, DAKO, Denmark) for 15 min at 4° C. in the dark. Cells were again washed and resuspended in 200 μL of 1% BSA/PBS for analysis on Guava® easy Cyte 8HT Benchtop Flow Cytometer (Merck Millipore, USA). For interrogation of […] binding, cells were fixed with 4% PFA/PBS (Affymetrix, USA) at room temperature for 10 min, washed in PBS, and permeabilised with 0.1% triton/PBS for 5 min at room temperature, before proceeding with incubation with mAb supernatant/primary antibody. For staining with propidium iodide, PI was added to a final concentration of 5 μg/mL for 5 min just prior to analysis by the flow cytometer.
# [3] = test system: PC-9 Gefitinib resistant clones; experiment: Propidium iodide staining (FL-3) for cytotoxicity of mAb alone; format: cell-based; conditions: cells incubated with the mAb alone
# Method: as §1
# [4] = test system: normal cell lines (fibroblasts, endothelial and epithelial cells) and primary PBMCs; experiment: Flow cytometry binding on normal cells; format: cell-based
# Method: as §1
# [5] = test system: A549; experiment: Flow cytometry binding on A549 lung adenocarcinoma; format: cell-based; conditions: A549 parental, heterogeneous binding
# Method: as §1
# [6] = test system: PC-9; experiment: Mab-ZAP indirect saporin conjugate cell growth inhibition; format: cell-based; conditions: GR6A04 indirectly conjugated with saporin via anti-mouse antibody; PC-9 sensitive parental line
# Method: (§2) Cells were seeded into a black coated 96 well plate (Grenier Bio-one, UK) at a range of density from 1000-5000 cells per well (depending on the cell type used) and 90 μL per well. The plate was then incubated for 24 hours at 37° C. in humidified air with 5% CO2. After 24 hours, 10 μL of mAb or buffer was added to each well and the plate was again placed at 37° C. in humidified air with 5% CO2. 4 days after addition of mAb or buffer, 100 μL of CTG substrate (Promega, Wisconsin, USA) was added to each well. The plate was then left in the dark for 10 minutes, with vigorous shaking. The cell viability of the samples was then quantified using Tecan I-control (Tecan, Switzerland).
# [7] = test system: CL75 GR clone; experiment: as above; format: cell-based; conditions: GR6A04 indirectly conjugated with saporin via anti-mouse antibody
# Method: as §2
# [8] = test system: cancer cell lines; experiment: IHC staining on FFPE cell line array; format: cell-based; conditions: gastric, lung, colorectal and pancreatic cancer cell lines
# Method: (§3) TMA slides containing FFPE tissues were first heated in an oven at 60° C. for 30 min to remove any solvents. The slides were then dewaxed and re-hydrated through sequential immersion in Histoclear (2×), 100% ethanol (2×), 95% ethanol, 70% ethanol, and finally in DI water.
# (§4) Heat-induced epitope retrieval was done in a solution containing 10 mM Tris Base, 1 mM EDTA, 0.05% Tween 20 at pH 9.0, and heated at 95° C. for 20 min. The container with the antigen retrieval solution and slides was then removed and allowed to cool to room temperature for an additional 20 min. The slides were then washed in DI water. Endogenous peroxidase activity was then blocked by incubation of the slides with 3% H2O2 in PBS for 30 min at room temperature. The slides were washed in DI water, followed by a blocking step with 10% normal goat serum in PBS for 30 min.
# The slides were then incubated with GR6A04 at 5 μg/mL in blocking solution overnight at 4° C. The slides were then washed an incubated with a polymer-based anti-mouse secondary antibody conjugated with HRP (DAKO, USA) for 30 min at room temperature, and developed with the recommended DAB chromogen substrate solution for 2 min, and counterstained with Gill's Hematoxylin solution. […]
# [9] = test system: NSCLC tissue; experiment: IHC staining on NSCLC tissue microarray with adjacent normal (LC 1001 2a)
# Method: as §3, §4
# The slides were then incubated with GR6A04 at 5 μg/mL in blocking solution overnight at 4° C. The slides were then washed an incubated with a polymer-based anti-mouse secondary antibody conjugated with HRP (DAKO, USA) for 30 min at room temperature, and developed with the recommended DAB chromogen substrate solution for 2 min, and counterstained with Gill's Hematoxylin solution.
# The stained slides were subsequently dehydrated through immersion in 50% ethanol, 70% ethanol, 90% ethanol, 100% ethanol (2×) and Histoclear (2×), before mounting with a glass cover slip. The slides were then imaged with the Zeiss AxioScan Digital Slide Scanner.
# [10] = molecular target: PC-9; experiment: ADCC reporter bioassay (Promega, Luciferase reporter for FcγR); format: cell-based
# Method: (§5) ADCC activity was measured using a reporter bioassay (Promega; ADCC Reporter Bioassay, #G7010). The ADCC bioassay was carried out according to the manufacturer's protocol Briefly, PC-9 and A549 cells were seeded at 5,000 cells per well in a 96-well clear bottom black tissue culture plates (Corning; #3904) in low 4% IgG-serum (Promega; #G711A) media and allowed to attach and spread overnight. Serial dilutions of Hu-GR6A04 were incubated in triplicate wells for approximately 15 min at 37° C., 5% CO2. Following incubation, engineered effector cells were added to the wells at approximately 150,000 cells per well. After 6 hours, Bio-Glo™ Luciferase Assay Substrate (Promega; #G719A and #G720A) was added to the wells and luminescence was measured using the Infinite® 200 microplate reader (Tecan).
# [11] = molecular target: A549−GR6A04+; experiment: as above; format: cell-based
# Method: as §5
# [12] = molecular target: T1, CEACAM6; experiment: Binding after siRNA knock down of CEACAM6; format: cell-based; conditions: PC-9 cells; Western blot and flow cytometry
molecule,measurement,setting,value
"GR6A04: mouse IgG1, κ anti-CEACAM6 monoclonal antibody, VH SEQ ID NO:1, VL SEQ ID NO:2, binds N-glycosylated CEACAM6 (antibody, V domains shown, Isolated antibody fragment) VH: SGPELVKPGASVKMSCKASGNTFTSYVMHWVKQKPGQGLEWIGYINPYNDGTKYNEKFKGKATLTSDKSSSTAYMELSSLTSEDSAVYYCARSTARATPYFYAMDYWGQGTSVTVSS VL: DILMTQSPSSLAVTAGEKVTMRCKSSQSLLWSVNQNSYLSWYQLKQGQPPKLLLYGASIRESWVPDRFTGSGSGTDFTLTISNVHVEDLAVYYCQHNHGSFLPYTFGGGTKLEIK",time to internalise,[1],≤ 120 min
same,GR HCC827 clones with binding,[2],2 of 6
same,breast cancer lines with reactivity,[2],3 of 13
same,colorectal cancer lines with reactivity,[2],1 of 2
same,NSCLC lines with partial binding,[2]; A549 and Calu-3 positive,2 of 4
same,"cell cytotoxicity (propidium iodide staining, FL-3)",[3],no apparent cell cytotoxicity
same,"cell cytotoxicity (propidium iodide staining, FL-3)",[3]; listed as GR 6A04,no inherent cytotoxity
same,binding on the cell surface of normal cells,[4],< 8%
same,GR6A04+ population (positive binding tail),[5],15-30%
same,cell growth inhibited,[6],43%
same,cell growth inhibited,[7],28%
same,IHC reactivity on FFPE cell line array,[8],reactive
same,positive staining adenocarcinoma (cores positive/total),[9]; LC 1001 2a,9/18
same,positive staining squamous (cores positive/total),[9]; LC 1001 2a,4/27
same,staining of paired adjacent normal tissue,[9]; LC 1001 2a,did not have any positive staining
same,staining of paired adjacent normal tissue,"[9]; LC 1001 2a, listed as GR 6A04",negative staining
same,positive stained lung adenocarcinoma cores,[9]; focused NSCLC TMA,50%
same,positive stained squamous cell cancer cores,[9]; focused NSCLC TMA,15%
same,EC50,[10],39.6 nM
same,EC50,[11],1.33 nM
same,binding after knockdown of CEACAM6 expression,[12],decrease
